Laboratory results from US20180362629A1 (ZOETIS BELGIUM S A, published 2018).

Key:
recombinant canine β NGF [1] = molecular target: T1, recombinant canine β NGF (canine, UniProt Q29074 110-229 (pig entry)); assay: cell-based or functional assay
T1 chain: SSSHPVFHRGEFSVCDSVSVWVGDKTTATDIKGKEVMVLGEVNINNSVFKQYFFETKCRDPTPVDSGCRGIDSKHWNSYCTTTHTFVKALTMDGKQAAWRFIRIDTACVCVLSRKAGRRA

recombinant canine β NGF [2] = molecular target: T2, recombinant canine β NGF (canine, UniProt Q29074 110-229 (pig entry)); assay: cell-based or functional assay
T2 chain: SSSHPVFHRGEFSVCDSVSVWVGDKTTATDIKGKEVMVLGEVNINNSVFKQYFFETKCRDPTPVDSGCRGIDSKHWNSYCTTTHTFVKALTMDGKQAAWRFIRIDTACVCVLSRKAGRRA

recombinant canine β NGF [3] = molecular target: T2, recombinant canine β NGF; assay: SPR (Biacore T100), antibody captured on goat anti-canine IgG, canine NGF injected; Average
Procedure: (§1) Purified mouse/canine chimeric antibodies and caninized antibodies were analyzed for affinity to canine NGF using a Biacore T100 instrument. Goat anti Canine IgG (Southern Biotech) was immobilized at 5000-10000 RU on a CM5 chip using an amine coupling procedure according to the manufacturer's instructions (Biacore). […] The association rate was monitored for 5 min and the dissociation rate was monitored for 10-20 min. The chip surface was regenerated using 50-75 ul 10 mM glycine pH 1.5 at a flow rate of 50-100 ul/min. Data was analyzed using Biaevaluation T100 software version 2.0.2, software, GE Healthcare Life Sciences (Piscataway, N.J.). Overall affinity parameters established for mouse/canine chimeric antibodies is summarized in Table 22 and for caninized antibodies in Table 23. […] The overall KDs of the mouse/canine anti-NGF mAbs range from about 1300 pM to 1.6 pM. […] The overall KDs of the caninized anti-NGF mAbs range from about 42 pM to 1.2 pM.

recombinant canine β NGF [4] = molecular target: T2, recombinant canine β NGF; assay: SPR (Biacore T100), antibody captured on goat anti-canine IgG, canine NGF injected; Expt 1
Procedure: as §1

recombinant canine β NGF [5] = molecular target: T2, recombinant canine β NGF; assay: SPR (Biacore T100), antibody captured on goat anti-canine IgG, canine NGF injected; Expt 2
Procedure: as §1

B1: Mu77 Canine IgG1/k Chimera (antibody, V domains shown)
VH: EVQLQQSGAELVKPGASVKLSCTASGFNIKDTYIYWVKQRPEQGLEWIGRIDPANGNTIYASKFQGKASITADTSSNTAYMQLSSLTSGDTAVYYCAGYGYYAYWGQGTTLTVSS
VL: DVVLTQTPLSLPVNIGDQASISCKSTKSLLNGDGFTYLDWYLQKPGQSPQLLIYLVSNRFSGVPDRFSGSGSGTDFTLKISRVEAEDLGVYYCFESNYLFTFGSGTKLEMKR
For B1, the “TF-1 cell proliferation potency (70 pM canine NGF)” value (“TF-1 cell proliferation potency” below) (recombinant canine β NGF [1]) was less than 50 pM.

B2: 77.3 Canine IgG1/k (antibody, V domains shown)
VH: EVQLVQSAAEVKKPGASVKVSCKASGFNIKDTYIYWVKQAPGAGLEWIGRIDPANGNTIYASKFQGKASITADTSTNTAYMELSNLRTEDTAVYYCAGYGYYAYWGQGTLVTVSS
VL: DVVLTQTPRSLSVSPGETASISCKSTKSLLNGDGFTYLDWYRQKPGQSPQLLIYLVSNRFSGVPDRFSGSGSGTDFTLRISRVEADDTGLYYCFESNYLFTFGQGTNLEMKR
With B2 the “IC50, canine NGF-induced TF-1 cell proliferation (70 pM canine NGF)” value (“IC50 … (70 pM canine NGF)” for short) (recombinant canine β NGF [2]) was 0.625 nM.

B3: 77.4 Canine IgG1/k (antibody)
heavy: EVQLVQSAAEVKKPGASVKVSCKASGYIFIDTYIYWVKQAPGAGLEWMGRIDPANGNTIYASKFQGRVTLTADTSTNTVYMELSNLRTEDTAVYYCAGYGYYAYWGQGTLVTVSSASTTAPSVFPLAPSCGSTSGSTVALACLVSGYFPEPVTVSWNSGSLTSGVHTFPSVLQSSGLHSLSSMVTVPSSRWPSETFTCNVVHPASNTKVDKPVFNECRCTDTPPCPVPEPLGGPSVLIFPPKPKDILRITRTPEVTCVVLDLGREDPEVQISWFVDGKEVHTAKTQSREQQFNGTYRVVSVLPIEHQDWLTGKEFKCRVNHIDLPSPIERTISKARGRAHKPSVYVLPPSPKELSSSDTVSITCLIKDFYPPDIDVEWQSNGQQEPERKHRMTPPQLDEDGSYFLYSKLSVDKSRWQQGDPFTCAVMHETLQNHYTDLSLSHSPGK
light: DLVLTQTPRSLSVSPGETASISCKSTKSLLNGDGFTYLDWYRQKPGQSPQLLIYLVSNRFSGVPDRFSGSGSGTDFTLRISRVEADDTGLYYCFESNYLFTFSQGTNLEMKRNDAQPAVYLFQPSPDQLHTGSASVVCLLNSFYPKDINVKWKVDGVIQDTGIQESVTEQDKDSTYSLSSTLTMSSTEYLSHELYSCEITHKSLPSTLIKSFQRSECQRVD
In the case of B3, the “IC50 … (70 pM canine NGF)” value (recombinant canine β NGF [2]) is reported as 0 nM.

B4: PR-1254973 (antibody, mouse IgG2b, V domains shown)
VH: QVQLQQPGAELVKPGASVKLSCKASGYTFTNYWMHWVKQRPGQGLEWIGRIDPYGGGTKHNEKFKRKATVTADKSSSTAYILLSSLTSEDSAVYYCTRSGYDYYFDVWGTGTTVTVSS
VL: DIQMTQSPASLSASVGETVTVTCRASENIYSFLAWHQQKQGKSPQLLVYNANTLAEGVPSRFSGSGSGTQFSLKINSLQPEDFGSYYCQHHFGTPFTFGSGTKLEIKR
With B4 the “PathHunter IC50 (441 pM canine NGF)” value (recombinant canine β NGF [1]) was less than 1 nM and the “SureFire cellular pERK IC50 (128 pM canine NGF)” value (from here on “SureFire cellular pERK IC50”) (recombinant canine β NGF [1]) was less than 1 nM.

B5: Mu73 Canine IgG1/k Chimera (antibody, V domains shown)
VH: QVQLQQPGAELVKPGASVKLSCKASGYTFTNYWMHWVKQRPGQGLEWIGRIDPYGGGTKHNEKFKRKATVTADKSSSTAYILLSSLTSEDSAVYYCTRSGYDYYFDVWGTGTTVTVSS
VL: DIQMTQSPASLSASVGETVTVTCRASENIYSFLAWHQQKQGKSPQLLVYNANTLAEGVPSRFSGSGSGTQFSLKINSLQPEDFGSYYCQHHFGTPFTFGSGTKLEIKR
With B5 the “TF-1 cell proliferation potency” value (recombinant canine β NGF [1]) was less than 50 pM.

B6: PR-1254981 (antibody, mouse IgG1, V domains shown)
VH: EVQLVESGGGAVKPGGSLTLSCAASGFTFSNHYMYWVRQTPEKRLEWVASISDGGAYTFYPDTVKGRFTISRDNVNNNLYLQMRHLKSEDTAMYYCTREESANNGFAFWGQGTLVTVSA
VL: DVLMTQTPLSLPVSLGDQASISCRSSQSILHSNGNTYLEWYLQKPGQSPNLLIYRVSNRFSGVPDRFSGSGSGTDFTLKISRVEAEDLGVYYCFQGAHVPFTFGSGTKLEIKR
B6 was tested, and the “PathHunter IC50 (441 pM canine NGF)” value (recombinant canine β NGF [1]) was less than 1 nM and the “SureFire cellular pERK IC50” value (recombinant canine β NGF [1]) was less than 1 nM.

B7: Mu81 Canine IgG1/k Chimera (antibody, V domains shown)
VH: EVQLVESGGGAVKPGGSLTLSCAASGFTFSNHYMYWVRQTPEKRLEWVASISDGGAYTFYPDTVKGRFTISRDNVNNNLYLQMRHLKSEDTAMYYCTREESANNGFAFWGQGTLVTVSA
VL: DVLMTQTPLSLPVSLGDQASISCRSSQSILHSNGNTYLEWYLQKPGQSPNLLIYRVSNRFSGVPDRFSGSGSGTDFTLKISRVEAEDLGVYYCFQGAHVPFTFGSGTKLEIKR
In the case of B7, the “TF-1 cell proliferation potency” value (recombinant canine β NGF [1]) is reported as less than 50 pM.

B8: PR-1254982 (antibody, mouse IgG1, V domains shown)
VH: QVQLKESGPGLVAPSQSLSITCTVSGFSLTGYNINWVRQPPGKGLEWLGMIWGYGDTDYNSALKSRLSISKDNSKSQVFLKMNSLQTDDTARYYCARDHYGGNDWYFDVWGTGTTVTVSS
VL: DIQMTQTTSSLSASLGDRVTITCRASQDITNYLNWYQQKPDGTVKLLIYYTSRLHSGVPSRFSGSGSGTDYSLTISNLDQEDIATYFCQQGKTLPRTFGGGTKLEIKR
For B8, the “PathHunter IC50 (441 pM canine NGF)” value (recombinant canine β NGF [1]) was less than 1 nM and the “SureFire cellular pERK IC50” value (recombinant canine β NGF [1]) was less than 1 nM.

B9: Mu82 Canine IgG1/k Chimera (antibody, V domains shown)
VH: QVQLKESGPGLVAPSQSLSITCTVSGFSLTGYNINWVRQPPGKGLEWLGMIWGYGDTDYNSALKSRLSISKDNSKSQVFLKMNSLQTDDTARYYCARDHYGGNDWYFDVWGTGTTVTVSS
VL: DIQMTQTTSSLSASLGDRVTITCRASQDITNYLNWYQQKPDGTVKLLIYYTSRLHSGVPSRFSGSGSGTDYSLTISNLDQEDIATYFCQQGKTLPRTFGGGTKLEIKR
In the case of B9, the “TF-1 cell proliferation potency” value (recombinant canine β NGF [1]) is reported as less than 50 pM.

B10: 72.3 Canine IgG1/k (antibody, V domains shown)
VH: EVHLVESGGDLVKPGGSLRLSCVASGFTFSDYYMFWIRQSPGKGLEWVATISDGGSYTYYTDNVKGRFTISRDNANNNLYLQMNSLKAEDTAVYYCAKDWSDSEGFAYWGQGTLVTVSS
VL: DVLMTQTPPSLSVSPREPASISCRSSQSIVQSNGNTYLEWYLQKPGQSPKLLIYKVSNRFSGVPDRFSGSGSGTDFTLRISRVEADDTGVYYCFQGSHVPFTFGAGTKVELKR
For B10, the “IC50 … (70 pM canine NGF)” value (recombinant canine β NGF [2]) was 0 nM.

B11: 72.4 Canine IgG1/k (antibody, V domains shown)
VH: EVHLVESGGDLVKPGGSLRLSCVASGFTFSDYYMFWVRHSPGKGLEWVATISDGGSYTYYTDNVKGRFTISRDNANNTLYLQMNSLRAEDTAVYYCAKDWSDSEGFAYWGQGTLVTVSS
VL: DIVMTQTPPSLSVSPREPASISCRSSQSIVQSNGNTYLEWYLQKPGQSPKLLIYKVSNRFSGVPDRFSGSGSGTDFTLRISRVEADDTGVYYCFQGSHVPFTFGAGTKVELKR
For B11, the “IC50 … (70 pM canine NGF)” value (recombinant canine β NGF [2]) was 0 nM.

B12: 73.2 Canine IgG1/k (antibody, V domains shown)
VH: QVQLVQSAAEVKKPGASVKVSCKASGYTFTNYWMHWVQQAPGAGLEWIGRIDPYGGGTKHNEKFKRRATVTADKSTSTAYMELSNLRTEDTAVYYCTRSGYDYYFDVWGQGTLVTVSS
VL: DIQMTQTPLSLSASPGESASITCRASENIYSFLAWHRQKPGQSPQLLVYNANTLAEGVPSRFSGSGSGTQFTLRISRVEDEDAGLYYCQHHFGTPFTFGQGTKLEIKR
notes: The variable/constant junction was not checked; also called PR-1313520; PR-13113520
With B12 the Kd (recombinant canine β NGF [3]) was 0.043 nM, the koff (recombinant canine β NGF [3]) was 0.00029 s⁻¹ and the kon (recombinant canine β NGF [3]) was 6.6e+06 M⁻¹ s⁻¹. The Kd (recombinant canine β NGF [4]) was 0.044 nM, the koff (recombinant canine β NGF [4]) was 0.00028 s⁻¹ and the kon (recombinant canine β NGF [4]) was 6.3e+06 M⁻¹ s⁻¹. The “IC50 … (70 pM canine NGF)” value (recombinant canine β NGF [2]) was 0.422 nM, the Kd (recombinant canine β NGF [5]) was 0.042 nM and the koff (recombinant canine β NGF [5]) was 0.00029 s⁻¹. For the same binder, the kon (recombinant canine β NGF [5]) was 6.9e+06 M⁻¹ s⁻¹.

B13: 73.4 Canine IgG1/k (antibody, V domains shown)
VH: EVQLVQSAAEVKKPGASVKVSCKASGYIFINYWMHWVQQAPGAGLEWMGRIDPYGGGTKHNEKFKRRVTLTADKSTSTVYMELSNLRTEDTAVYYCTRSGYDYYFDVWGQGTLVTVSS
VL: DIQMTQTPLSLSASPGESASISCRASENIYSFLAWHRQKPGQSPQLLIYNANTLAEGVPSRFSGSGSGTQFTLRISRVEDEDAGLYYCQHHFGTPFTFGQGTKLEIKR
With B13 the “IC50 … (70 pM canine NGF)” value (recombinant canine β NGF [2]) was 0 nM.

B14: 82.4 Canine IgG1/k (antibody, V domains shown)
VH: EVQLQESGPGLVKPSQTLSLTCTVSGGSVTGYNINWIRQRPDRGLEWMGMIWGYGDTDYNSALKSRISITKDNTKSQLFLQLTSTTTEDTAVYYCARDHYGGNDWYFDVWGQGTLVTVSS
VL: DIQMTQTPLSLSASPGESASISCRASQDITNYLNWYRQKPGQSPKLLIYYTSRLHSGVPSRFSGSGSGTDYTLRISRVEDEDAGLYFCQQGKTLPRTFGQGTKLEIKR
notes: The variable/constant junction was not checked; also called PR-1313521; PR-13113521
In the case of B14, the Kd (recombinant canine β NGF [3]) is reported as 0.0014 nM, the koff (recombinant canine β NGF [3]) is reported as 1.2e-05 s⁻¹ and the kon (recombinant canine β NGF [3]) is reported as 8.2e+06 M⁻¹ s⁻¹. The Kd (recombinant canine β NGF [4]) was 0.0012 nM, the koff (recombinant canine β NGF [4]) was 1.1e-05 s⁻¹ and the kon (recombinant canine β NGF [4]) was 8.6e+06 M⁻¹ s⁻¹. For the same binder, the “IC50 … (70 pM canine NGF)” value (recombinant canine β NGF [2]) was 16 pM, the Kd (recombinant canine β NGF [5]) was 0.0015 nM and the koff (recombinant canine β NGF [5]) was 1.2e-05 s⁻¹. For the same binder, the kon (recombinant canine β NGF [5]) was 7.7e+06 M⁻¹ s⁻¹.
